This is an account of results in US20080235826.

For data set [1], the target named is T1, purified oat phytochrome A, autophosphorylated (UniProt P06593).
T1 sequence: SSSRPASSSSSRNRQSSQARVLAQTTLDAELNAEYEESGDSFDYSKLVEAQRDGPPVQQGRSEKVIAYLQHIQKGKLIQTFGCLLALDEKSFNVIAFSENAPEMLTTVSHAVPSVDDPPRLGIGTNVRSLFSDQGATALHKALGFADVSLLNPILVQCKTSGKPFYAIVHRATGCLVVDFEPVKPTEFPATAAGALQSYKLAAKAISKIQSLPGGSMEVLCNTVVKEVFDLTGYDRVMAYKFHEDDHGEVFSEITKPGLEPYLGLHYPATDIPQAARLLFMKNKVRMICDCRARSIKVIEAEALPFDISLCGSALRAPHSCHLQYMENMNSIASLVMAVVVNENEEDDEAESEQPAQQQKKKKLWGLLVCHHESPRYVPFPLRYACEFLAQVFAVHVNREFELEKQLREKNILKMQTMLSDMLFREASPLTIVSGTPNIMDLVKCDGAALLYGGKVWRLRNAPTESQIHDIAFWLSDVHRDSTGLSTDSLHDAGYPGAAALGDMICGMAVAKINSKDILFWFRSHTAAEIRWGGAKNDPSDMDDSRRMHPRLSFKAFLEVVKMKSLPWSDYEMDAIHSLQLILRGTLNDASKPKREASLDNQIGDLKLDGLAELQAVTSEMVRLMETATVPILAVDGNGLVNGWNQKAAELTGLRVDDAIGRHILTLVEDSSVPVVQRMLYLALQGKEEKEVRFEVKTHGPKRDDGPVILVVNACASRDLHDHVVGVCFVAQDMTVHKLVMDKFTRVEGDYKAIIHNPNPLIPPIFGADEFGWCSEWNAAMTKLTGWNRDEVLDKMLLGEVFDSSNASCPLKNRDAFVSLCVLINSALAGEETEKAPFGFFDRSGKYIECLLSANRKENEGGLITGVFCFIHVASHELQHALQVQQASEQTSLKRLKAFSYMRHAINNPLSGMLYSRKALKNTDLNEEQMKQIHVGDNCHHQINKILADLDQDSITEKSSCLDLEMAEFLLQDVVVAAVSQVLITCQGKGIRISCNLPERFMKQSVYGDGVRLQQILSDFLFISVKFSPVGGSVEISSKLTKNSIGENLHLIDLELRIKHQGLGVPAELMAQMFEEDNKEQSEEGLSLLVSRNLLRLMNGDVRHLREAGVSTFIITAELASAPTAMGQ

The target in data set [2] is T2, purified oat phytochrome A, autophosphorylated, P06593.
T2 chain: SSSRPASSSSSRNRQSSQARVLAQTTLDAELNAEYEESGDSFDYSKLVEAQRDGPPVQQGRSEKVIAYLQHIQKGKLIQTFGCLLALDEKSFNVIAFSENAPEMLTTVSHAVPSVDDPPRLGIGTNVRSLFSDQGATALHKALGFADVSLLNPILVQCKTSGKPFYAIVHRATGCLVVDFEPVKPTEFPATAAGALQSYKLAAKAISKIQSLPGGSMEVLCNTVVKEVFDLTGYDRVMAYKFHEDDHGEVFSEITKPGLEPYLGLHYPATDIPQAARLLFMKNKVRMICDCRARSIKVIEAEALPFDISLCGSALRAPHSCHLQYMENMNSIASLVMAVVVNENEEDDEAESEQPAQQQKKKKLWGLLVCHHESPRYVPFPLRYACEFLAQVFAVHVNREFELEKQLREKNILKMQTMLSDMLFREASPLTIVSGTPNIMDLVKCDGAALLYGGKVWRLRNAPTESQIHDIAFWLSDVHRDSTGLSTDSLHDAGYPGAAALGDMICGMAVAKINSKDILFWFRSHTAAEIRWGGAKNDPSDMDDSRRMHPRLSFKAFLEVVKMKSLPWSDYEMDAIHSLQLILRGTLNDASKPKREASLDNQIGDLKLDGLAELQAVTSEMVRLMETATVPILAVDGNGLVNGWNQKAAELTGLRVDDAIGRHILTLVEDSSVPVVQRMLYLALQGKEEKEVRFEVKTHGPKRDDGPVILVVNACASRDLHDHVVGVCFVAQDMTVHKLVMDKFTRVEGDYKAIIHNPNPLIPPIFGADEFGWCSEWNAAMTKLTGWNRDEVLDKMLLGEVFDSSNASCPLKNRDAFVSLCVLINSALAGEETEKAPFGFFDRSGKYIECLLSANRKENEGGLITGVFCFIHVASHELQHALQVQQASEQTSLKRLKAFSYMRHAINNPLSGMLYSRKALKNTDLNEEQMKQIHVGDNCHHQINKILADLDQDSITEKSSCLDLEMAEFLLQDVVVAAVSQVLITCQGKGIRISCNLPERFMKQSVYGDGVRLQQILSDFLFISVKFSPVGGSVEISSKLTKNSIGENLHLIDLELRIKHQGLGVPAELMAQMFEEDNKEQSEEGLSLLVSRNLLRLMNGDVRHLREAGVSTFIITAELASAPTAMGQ

For data set [3], the target named is Arabidopsis thaliana phytochrome B (PHYB), full-length, yeast two-hybrid bait in pGilda, P14713.
Arabidopsis thaliana phytochrome B (PHYB), full-length, yeast two-hybrid bait in pGilda, P14713, sequence (P14713 whole entry, the tested form may be a part): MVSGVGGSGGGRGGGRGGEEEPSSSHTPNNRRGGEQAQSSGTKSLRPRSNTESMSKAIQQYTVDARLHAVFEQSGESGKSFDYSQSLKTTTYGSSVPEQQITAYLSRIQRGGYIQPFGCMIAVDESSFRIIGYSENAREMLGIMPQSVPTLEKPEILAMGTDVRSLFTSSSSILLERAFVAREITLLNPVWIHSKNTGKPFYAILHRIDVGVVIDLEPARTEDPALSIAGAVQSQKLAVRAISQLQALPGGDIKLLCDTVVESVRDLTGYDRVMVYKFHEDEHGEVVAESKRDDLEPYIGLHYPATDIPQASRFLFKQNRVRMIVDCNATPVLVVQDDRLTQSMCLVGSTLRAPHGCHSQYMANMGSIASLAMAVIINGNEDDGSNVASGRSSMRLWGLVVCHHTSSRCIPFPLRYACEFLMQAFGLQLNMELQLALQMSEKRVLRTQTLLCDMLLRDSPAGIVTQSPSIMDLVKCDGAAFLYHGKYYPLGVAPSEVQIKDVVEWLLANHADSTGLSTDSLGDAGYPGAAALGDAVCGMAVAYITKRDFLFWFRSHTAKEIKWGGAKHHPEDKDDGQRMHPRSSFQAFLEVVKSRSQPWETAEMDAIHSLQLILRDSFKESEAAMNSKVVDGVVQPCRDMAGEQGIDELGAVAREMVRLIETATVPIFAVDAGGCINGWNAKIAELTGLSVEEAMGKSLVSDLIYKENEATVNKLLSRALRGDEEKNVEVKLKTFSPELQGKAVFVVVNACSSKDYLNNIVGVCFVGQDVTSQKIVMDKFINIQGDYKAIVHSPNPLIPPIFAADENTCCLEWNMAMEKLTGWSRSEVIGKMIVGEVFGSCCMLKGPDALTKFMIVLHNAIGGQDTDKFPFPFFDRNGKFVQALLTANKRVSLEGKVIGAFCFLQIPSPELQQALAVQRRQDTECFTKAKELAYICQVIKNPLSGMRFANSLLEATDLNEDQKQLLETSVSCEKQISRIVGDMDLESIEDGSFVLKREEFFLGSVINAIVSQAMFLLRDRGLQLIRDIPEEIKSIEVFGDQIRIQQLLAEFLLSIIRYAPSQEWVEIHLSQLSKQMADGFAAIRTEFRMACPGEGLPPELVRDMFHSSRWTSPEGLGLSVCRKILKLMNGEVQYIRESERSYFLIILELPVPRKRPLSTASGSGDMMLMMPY
The target of data set [4] is T3, Arabidopsis thaliana phytochrome A (PHYA), full-length, yeast two-hybrid fusion.
T3 chain: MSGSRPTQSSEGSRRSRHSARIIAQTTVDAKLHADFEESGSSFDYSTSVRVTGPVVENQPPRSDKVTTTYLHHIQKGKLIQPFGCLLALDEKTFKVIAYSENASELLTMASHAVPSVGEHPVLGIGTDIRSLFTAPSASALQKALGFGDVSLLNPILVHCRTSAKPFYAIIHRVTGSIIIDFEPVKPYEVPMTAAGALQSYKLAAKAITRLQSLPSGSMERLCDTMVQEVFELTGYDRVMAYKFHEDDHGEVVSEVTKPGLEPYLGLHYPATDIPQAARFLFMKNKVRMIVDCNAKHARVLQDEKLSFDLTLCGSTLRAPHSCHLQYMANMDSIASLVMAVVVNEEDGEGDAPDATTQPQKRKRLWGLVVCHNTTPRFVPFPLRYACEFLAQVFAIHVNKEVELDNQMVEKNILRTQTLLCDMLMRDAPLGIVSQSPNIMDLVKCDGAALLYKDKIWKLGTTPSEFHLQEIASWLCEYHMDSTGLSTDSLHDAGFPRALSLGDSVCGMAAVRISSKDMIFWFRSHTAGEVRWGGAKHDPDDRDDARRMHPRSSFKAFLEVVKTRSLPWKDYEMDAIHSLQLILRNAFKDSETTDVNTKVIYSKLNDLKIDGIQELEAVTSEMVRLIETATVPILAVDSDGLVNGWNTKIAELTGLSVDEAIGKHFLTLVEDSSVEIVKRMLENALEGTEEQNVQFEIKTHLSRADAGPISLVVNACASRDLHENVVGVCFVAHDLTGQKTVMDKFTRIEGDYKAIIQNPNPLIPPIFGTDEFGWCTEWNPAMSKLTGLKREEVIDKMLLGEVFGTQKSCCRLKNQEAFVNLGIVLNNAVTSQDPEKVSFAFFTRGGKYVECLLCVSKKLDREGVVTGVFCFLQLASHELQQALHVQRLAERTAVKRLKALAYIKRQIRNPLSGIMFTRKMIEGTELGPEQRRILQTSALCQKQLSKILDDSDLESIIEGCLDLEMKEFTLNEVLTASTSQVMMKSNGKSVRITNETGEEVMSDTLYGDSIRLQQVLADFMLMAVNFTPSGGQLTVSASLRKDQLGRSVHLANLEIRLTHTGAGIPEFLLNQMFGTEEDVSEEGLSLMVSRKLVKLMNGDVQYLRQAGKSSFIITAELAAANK

In the case of “GST-PP2Ac (fusion protein of GST and the PP2A catalytic domain of PAPP5, with a deletion of amino acids 1-138 of SEQ ID NO: 4)”, in data set [1], the “dephosphorylation of autophosphorylated oat Pfr phytochrome A (32P autoradiography)” value was “the level of dephosphorylation was very low”.

B1: GST-PAPP5 fusion protein (glutathione-S-transferase fused to full-length PAPP5) (protein)
chain: METKNENSDVSRAEEFKSQANEAFKGHKYSSAIDLYTKAIELNSNNAVYWANRAFAHTKLEEYGSAIQDASKAIEVDSRYSKGYYRRGAAYLAMGKFKDALKDFQQVKRLSPNDPDATRKLKECEKAVMKLKFEEAISVPVSERRSVAESIDFHTIEVEPQYSGARIEGEEVTLDFVKTMMEDFKNQKTLHKRYAYQIVLQTRQILLALPSLVDISVPHGKHITVCGDVHGQFYDLLNIFELNGLPSEENPYLFNGDFVDRGSFSVEIILTLFAFKCMCPSSIYLARGNHESKSMNKIYGFEGEVRSKLSEKFVDLFAEVFCYLPLAHVINGKVFVVHGGLFSVDGVKLSDIRAIDRFCEPPEEGLMCELLWSDPQPLPGRGPSKRGVGLSFGGDVTKRFLQDNNLDLLVRSHEVKDEGYEVEHDGKLITVFSAPNYCDQMGNKGAFIRFEAPDMKPNIVTFSAVPHPDVKPMAYANNFLRMFN
Consider B1, for which, in data set [2], the “dephosphorylation of autophosphorylated oat Pfr phytochrome A (32P autoradiography)” value was “only GST-PAPP5 dephosphorylated the autophosphorylated oat Pfr phytochrome A by about 80%” and the “dephosphorylation of autophosphorylated oat phytochrome A according to its light absorption form” value is “the dephosphorylation by PAPP5 was higher in Pfr phytochrome than that in Pf phytochrome”.

B2: B42-PP2Ac (TPR domain-deleted PP2A catalytic domain of PAPP5, yeast two-hybrid prey) (protein)
chain: VPVSERRSVAESIDFHTIEVEPQYSGARIEGEEVTLDFVKTMMEDFKNQKTLHKRYAYQIVLQTRQILLALPSLVDISVPHGKHITVCGDVHGQFYDLLNIFELNGLPSEENPYLFNGDFVDRGSFSVEIILTLFAFKCMCPSSIYLARGNHESKSMNKIYGFEGEVRSKLSEKFVDLFAEVFCYLPLAHVINGKVFVVHGGLFSVDGVKLSDIRAIDRFCEPPEEGLMCELLWSDPQPLPGRGPSKRGVGLSFGGDVTKRFLQDNNLDLLVRSHEVKDEGYEVEHDGKLITVFSAPNYCDQMGNKGAFIRFEAPDMKPNIVTFSAVPHPDVKPMAYANNFLRMFN
For the molecule B2, the “beta-galactosidase activity in Miller units (quantitative yeast two-hybrid)” value in data set [3] and in data set [4] was “showed a remarkable reduction in the activity of interaction with phytochromes” throughout.
